# According to article PMC8283798:
# Molecular target: FcγRIIIa-F158 (low-affinity FcγIIIa receptor allele) (human) (UniProt P08637)
# Assay: ELISA
row,Substance,EC50 [nM]
1,"G2F (1), core-fucosylated Herceptin glycoform carrying the biantennary complex-type N-glycan (antibody; other documents disagree on this pair)",1570
2,"G2(Az)F (2), core 6-azido-fucosylated Herceptin carrying a complex-type N-glycan (antibody; other documents disagree on this pair)",12.8
3,"G2(OH- triazol)F (4), core 6-triazole-fucosylated Herceptin (antibody; other documents disagree on this pair)",81.4
4,"G2(NH2)F (3), core 6-amino-fucosylated Herceptin (antibody; other documents disagree on this pair)",89.3

# Other lines, results leading:
row,EC50 [nM],Substance
1,11.5,"G2 (11), nonfucosylated Herceptin glycoform carrying the biantennary complex-type N-glycan (antibody; other documents disagree on this pair)"
2,1430,"G2Ara (6), core D-arabinosylated Herceptin (antibody; other documents disagree on this pair)"
3,84.6,"G2Gal (5), core L-galactosylated Herceptin (antibody; other documents disagree on this pair)"

# Molecular target: FcγRIIIa-V158 (high-affinity FcγIIIa receptor allele) (human) (UniProt P08637)
# Assay: ELISA
row,Substance,EC50 [nM]
1,"G2(NH2)F (3), core 6-amino-fucosylated Herceptin (antibody)",9.25
2,"G2 (11), nonfucosylated Herceptin glycoform carrying the biantennary complex-type N-glycan (antibody)",1.21
3,"G2F (1), core-fucosylated Herceptin glycoform carrying the biantennary complex-type N-glycan (antibody)",42.6
4,"G2Ara (6), core D-arabinosylated Herceptin (antibody)",39.7

# Further lines, results first:
row,EC50 [nM],Substance
1,2.86,"G2(Az)F (2), core 6-azido-fucosylated Herceptin carrying a complex-type N-glycan (antibody)"
2,7.19,"G2Gal (5), core L-galactosylated Herceptin (antibody)"
3,18.2,"G2(OH- triazol)F (4), core 6-triazole-fucosylated Herceptin (antibody)"
